Laboratory results: patent US20150258192A1, “COMPOSITIONS AND METHODS FOR PREVENTING OR TREATING CHRONIC LUNG ALLOGRAFT DYSFUNCTION (CLAD) AND IDIOPATHIC PULMONARY FIBROSIS (IPF)” (priority 2014, published 2015)
No end group written: not given here.

What was measured:
Test in all cases: Kinase Profiling Assay
Format in all cases: biochemical
Conditions in all cases: peptide 100 μM
PKD2(h) = molecular target: T1, PKD2(h) (Homo sapiens, UniProt Q9BZL6)
T1 sequence (Q9BZL6 1-878): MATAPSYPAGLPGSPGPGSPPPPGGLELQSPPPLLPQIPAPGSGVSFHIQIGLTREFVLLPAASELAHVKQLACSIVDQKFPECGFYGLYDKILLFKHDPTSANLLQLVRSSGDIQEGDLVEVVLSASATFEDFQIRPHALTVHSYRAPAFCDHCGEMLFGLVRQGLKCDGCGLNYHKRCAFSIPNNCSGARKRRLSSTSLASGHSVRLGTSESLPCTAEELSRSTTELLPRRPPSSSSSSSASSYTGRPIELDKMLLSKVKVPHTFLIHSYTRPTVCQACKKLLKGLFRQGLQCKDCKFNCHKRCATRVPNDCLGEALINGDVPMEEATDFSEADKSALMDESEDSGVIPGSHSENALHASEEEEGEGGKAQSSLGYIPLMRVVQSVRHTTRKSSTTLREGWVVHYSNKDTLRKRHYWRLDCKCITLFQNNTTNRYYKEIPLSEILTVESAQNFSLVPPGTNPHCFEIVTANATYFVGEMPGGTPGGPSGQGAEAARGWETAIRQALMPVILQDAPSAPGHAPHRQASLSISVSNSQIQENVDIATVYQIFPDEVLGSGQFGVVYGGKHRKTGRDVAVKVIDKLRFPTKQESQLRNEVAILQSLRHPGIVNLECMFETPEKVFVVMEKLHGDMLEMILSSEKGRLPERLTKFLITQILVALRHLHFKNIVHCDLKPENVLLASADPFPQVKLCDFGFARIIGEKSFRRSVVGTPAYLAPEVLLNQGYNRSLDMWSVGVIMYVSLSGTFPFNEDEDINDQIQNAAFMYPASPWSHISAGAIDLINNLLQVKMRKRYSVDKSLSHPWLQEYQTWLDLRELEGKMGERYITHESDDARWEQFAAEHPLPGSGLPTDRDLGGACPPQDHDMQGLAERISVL
Description: (§1) Every kinase activity measurement was conducted in duplicate.
(§2) Specifically, in these assays, a positively charged substrate is phosphorylated with a radiolabeled phosphate group from an ATP if the kinase is not inhibited by an inhibitor peptide. The positively charged substrate then is attracted to a negatively charged filter membrane, quantified with a scintillation counter, and compared to a 100% activity control.
(§3) In addition to determining the IC50 of the compound, the specificity of MK2 inhibitory peptides was assessed by examining activities of all 266 human kinases available for testing in the Millipore kinase profiling service (Table 1).

MELK(h) = molecular target: T2, MELK(h) (Homo sapiens, UniProt Q14680)
T2 construct: purchased Millipore
Description: as §1, §2, §3

PKCβII(h) = PKCβII(h) (Homo sapiens, UniProt P05771)
Description: as §1, §2, §3

EphB4(h) = molecular target: T3, EphB4(h) (Homo sapiens, UniProt P54760)
T3 sequence (P54760 16-987): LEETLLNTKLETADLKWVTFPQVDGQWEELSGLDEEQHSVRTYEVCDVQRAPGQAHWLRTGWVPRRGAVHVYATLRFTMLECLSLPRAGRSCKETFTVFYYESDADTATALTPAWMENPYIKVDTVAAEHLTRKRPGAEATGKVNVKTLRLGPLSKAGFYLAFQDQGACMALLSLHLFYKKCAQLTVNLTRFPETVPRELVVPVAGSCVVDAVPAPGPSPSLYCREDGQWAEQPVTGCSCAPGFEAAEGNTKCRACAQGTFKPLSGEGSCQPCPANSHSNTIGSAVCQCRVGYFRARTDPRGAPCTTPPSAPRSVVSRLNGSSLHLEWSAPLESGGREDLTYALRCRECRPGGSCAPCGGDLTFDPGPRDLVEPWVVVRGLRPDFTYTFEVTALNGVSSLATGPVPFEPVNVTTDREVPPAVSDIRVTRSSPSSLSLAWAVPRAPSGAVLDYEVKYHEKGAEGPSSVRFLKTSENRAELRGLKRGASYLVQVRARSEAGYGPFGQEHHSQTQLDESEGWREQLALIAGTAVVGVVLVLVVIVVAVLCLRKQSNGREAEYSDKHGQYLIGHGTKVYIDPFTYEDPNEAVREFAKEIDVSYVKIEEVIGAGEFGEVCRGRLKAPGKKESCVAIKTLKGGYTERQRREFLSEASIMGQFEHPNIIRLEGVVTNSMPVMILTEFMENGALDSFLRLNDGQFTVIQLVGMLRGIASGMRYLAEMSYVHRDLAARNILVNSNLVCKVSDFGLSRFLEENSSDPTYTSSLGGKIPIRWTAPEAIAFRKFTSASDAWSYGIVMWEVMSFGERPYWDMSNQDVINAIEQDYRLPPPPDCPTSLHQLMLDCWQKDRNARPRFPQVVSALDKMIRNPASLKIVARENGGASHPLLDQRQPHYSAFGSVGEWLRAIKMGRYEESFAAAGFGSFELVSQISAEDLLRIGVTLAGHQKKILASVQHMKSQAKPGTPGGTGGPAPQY
Description: as §1, §2, §3

T2 sequence (Q14680 whole entry): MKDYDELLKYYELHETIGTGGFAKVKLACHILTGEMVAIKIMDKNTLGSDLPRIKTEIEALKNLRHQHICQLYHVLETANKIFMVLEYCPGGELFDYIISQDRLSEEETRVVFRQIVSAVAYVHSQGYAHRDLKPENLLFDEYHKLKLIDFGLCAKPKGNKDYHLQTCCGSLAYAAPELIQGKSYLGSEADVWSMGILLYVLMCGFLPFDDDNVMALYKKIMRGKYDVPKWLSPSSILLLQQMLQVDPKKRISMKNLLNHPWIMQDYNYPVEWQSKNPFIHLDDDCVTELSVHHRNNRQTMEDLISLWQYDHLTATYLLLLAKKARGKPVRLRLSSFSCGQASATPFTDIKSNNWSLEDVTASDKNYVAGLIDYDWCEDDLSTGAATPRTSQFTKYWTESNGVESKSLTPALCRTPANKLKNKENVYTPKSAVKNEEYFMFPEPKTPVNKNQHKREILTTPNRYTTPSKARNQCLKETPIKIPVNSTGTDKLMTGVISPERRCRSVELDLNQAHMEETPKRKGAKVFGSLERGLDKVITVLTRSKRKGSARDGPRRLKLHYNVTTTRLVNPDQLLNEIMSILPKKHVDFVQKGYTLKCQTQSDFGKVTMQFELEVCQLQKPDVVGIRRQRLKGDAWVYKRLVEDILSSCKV
PKCβII(h), sequence (P05771 1-673 isoform P05771-2): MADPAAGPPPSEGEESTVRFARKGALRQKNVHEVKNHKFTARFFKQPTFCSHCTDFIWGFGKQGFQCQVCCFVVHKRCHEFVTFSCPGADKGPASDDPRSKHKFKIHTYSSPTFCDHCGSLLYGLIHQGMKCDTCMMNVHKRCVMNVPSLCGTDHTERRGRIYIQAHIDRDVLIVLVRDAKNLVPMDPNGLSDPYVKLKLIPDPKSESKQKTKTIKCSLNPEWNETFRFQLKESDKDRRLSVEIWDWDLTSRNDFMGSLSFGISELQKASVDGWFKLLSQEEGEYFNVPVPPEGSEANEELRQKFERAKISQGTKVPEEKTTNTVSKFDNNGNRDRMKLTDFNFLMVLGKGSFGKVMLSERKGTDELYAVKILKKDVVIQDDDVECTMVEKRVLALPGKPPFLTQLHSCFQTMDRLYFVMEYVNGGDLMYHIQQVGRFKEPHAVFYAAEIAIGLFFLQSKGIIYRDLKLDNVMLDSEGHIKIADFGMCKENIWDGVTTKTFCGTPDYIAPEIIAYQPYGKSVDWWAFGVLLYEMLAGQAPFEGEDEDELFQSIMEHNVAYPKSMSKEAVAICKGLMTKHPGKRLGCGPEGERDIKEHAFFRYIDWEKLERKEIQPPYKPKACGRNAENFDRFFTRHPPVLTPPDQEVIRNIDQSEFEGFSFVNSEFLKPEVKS

Sequence: FAKLAARLYRKALARQLGVAA [MMI-0300]
- % activity (PKD2(h)): 33%
- % activity (MELK(h)): 16%
- % activity (PKCβII(h)): 82%
- % activity (EphB4(h)): 44%

Sequence: HRRIKAWLKKIKALARQLGVAA (Mammal) [MMI-0500]
- % activity (PKD2(h)): 10%
- % activity (MELK(h)): 0%
- % activity (PKCβII(h)): 3%
- % activity (EphB4(h)): 38%

Sequence: KAFAKLAARLYRKALARQLGVAA [MMI-0400]
- % activity (PKD2(h)): 25%
- % activity (MELK(h)): 17%
- % activity (PKCβII(h)): 75%
- % activity (EphB4(h)): 28%

Sequence: YARAAARQARAKALARQLGVAA [MMI-0100]
- % activity (PKD2(h)): 84%
- % activity (MELK(h)): 74%
- % activity (EphB4(h)): 62%

Sequence: YARAAARQARAKALNRQLGVA (Mammal) [MMI-0200]
- % activity (PKD2(h)): 78%
- % activity (MELK(h)): 59%
- % activity (PKCβII(h)): 100%
- % activity (EphB4(h)): 131%
